Test results from patent EP2057188B1.
Values joined by “and” are separate entries in the source; they are usually repeats but may differ in a detail not shown here. Equal values may be shown once. Read-outs that look alike come from different tables or passages of the source.

How the values were obtained:
[1] = molecular target: T1, GIP Receptor (Rattus norvegicus (Rat)), P43219; test: GIP RBA, RIN
T1 chain: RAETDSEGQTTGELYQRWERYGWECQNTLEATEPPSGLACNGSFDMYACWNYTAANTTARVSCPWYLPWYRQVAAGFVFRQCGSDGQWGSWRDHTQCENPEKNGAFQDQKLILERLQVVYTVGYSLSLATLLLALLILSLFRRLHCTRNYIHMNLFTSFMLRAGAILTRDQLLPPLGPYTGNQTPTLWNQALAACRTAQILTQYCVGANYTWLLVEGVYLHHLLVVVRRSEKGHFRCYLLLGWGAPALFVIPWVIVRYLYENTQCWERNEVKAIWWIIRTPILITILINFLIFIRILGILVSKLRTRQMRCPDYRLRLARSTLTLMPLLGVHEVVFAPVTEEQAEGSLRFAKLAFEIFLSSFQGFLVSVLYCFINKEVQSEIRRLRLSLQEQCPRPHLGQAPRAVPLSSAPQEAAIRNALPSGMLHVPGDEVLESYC

[2] = molecular target: T1, GIP Receptor (Rattus norvegicus (Rat)), …; test: cell-based or functional assay
[3] = molecular target: T2, human GIP receptor (human), P48546; test: 125I-GIP displacement, 10 nM analog, HEK-GIPR
T2 chain: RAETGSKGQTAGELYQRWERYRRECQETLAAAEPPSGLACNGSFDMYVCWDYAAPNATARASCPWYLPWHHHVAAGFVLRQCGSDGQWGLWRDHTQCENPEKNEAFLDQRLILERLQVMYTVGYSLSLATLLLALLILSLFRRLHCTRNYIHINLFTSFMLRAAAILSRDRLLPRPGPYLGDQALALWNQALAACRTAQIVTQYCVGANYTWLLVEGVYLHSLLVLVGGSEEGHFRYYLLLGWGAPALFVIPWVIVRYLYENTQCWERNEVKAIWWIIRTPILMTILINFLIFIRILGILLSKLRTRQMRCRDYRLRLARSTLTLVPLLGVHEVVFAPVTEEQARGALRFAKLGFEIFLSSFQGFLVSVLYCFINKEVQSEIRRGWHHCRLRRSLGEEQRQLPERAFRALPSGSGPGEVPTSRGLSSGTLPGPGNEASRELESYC

[4] = molecular target: T2, human GIP receptor (human), P48546; test: 125I-GIP displacement, HEK-GIPR
[5] = molecular target: T2, human GIP receptor (human), P48546; test: 125I-GIP displacement, HEK-GIPR
[6] = molecular target: T1, GIP Receptor (Rattus norvegicus (Rat)), …; test: cell-based or functional assay
[7] = molecular target: T1, GIP Receptor (Rattus norvegicus (Rat)), …; test: GIP RBA

YSDGTFISDYSIAMDKIHQQDFVNWLLAQKPKKIRYS (modifications not checked) [0601GIP4386]
IC50 [1]: 156 nM
GIPR Cyclase [2]: 56

YAEGTFISDYSIAMDKIHQQDFVNWLLAQKPKKIRYS (modifications not checked) [0601GIP4233]
%Inh 10nM [3]: 89%
IC50 [4]: 0.12 nM and 0.41 nM
IC50 [5]: 0.21 nM

YAEGTFISDYSIAMDKIHQQDFVNWLLAQKPSSGAPPPS (modifications not checked) [0601GIP4178]
Cyclase [6]: 36.2
Cyclase [2]: 96
IC50 [5]: 0.17 nM

YAEGTFISDYSIAMDKIHQQDFVNWLLAQKPSSGAPPPS (modifications not checked) [0601GIP4252]
Cyclase [6]: 154
IC50 [7]: 5.6 nM
